Laboratory results published in article PMC7785802, “Therapeutic Efficacy of a Trichinella Spiralis Paramyosin-Derived Peptide Modified With a Membrane-Targeting Signal in Mice With Antigen-Induced Arthritis” (Frontiers in Microbiology, 2020).

Biological target: T1, original peptide (Trichinella spiralis paramyosin-derived tetradecapeptide, …) (Trichinella spiralis)
T1 construct: also called Ts-pmy-derived peptide; original Ts-Pmy-derived peptide; source: synthetic peptide (solid-phase synthesis, GL Biochem; RP-HPLC purified up to 95%)
Experiment: MST
Settings: both partners purified

T1 sequence (P02748 22-559): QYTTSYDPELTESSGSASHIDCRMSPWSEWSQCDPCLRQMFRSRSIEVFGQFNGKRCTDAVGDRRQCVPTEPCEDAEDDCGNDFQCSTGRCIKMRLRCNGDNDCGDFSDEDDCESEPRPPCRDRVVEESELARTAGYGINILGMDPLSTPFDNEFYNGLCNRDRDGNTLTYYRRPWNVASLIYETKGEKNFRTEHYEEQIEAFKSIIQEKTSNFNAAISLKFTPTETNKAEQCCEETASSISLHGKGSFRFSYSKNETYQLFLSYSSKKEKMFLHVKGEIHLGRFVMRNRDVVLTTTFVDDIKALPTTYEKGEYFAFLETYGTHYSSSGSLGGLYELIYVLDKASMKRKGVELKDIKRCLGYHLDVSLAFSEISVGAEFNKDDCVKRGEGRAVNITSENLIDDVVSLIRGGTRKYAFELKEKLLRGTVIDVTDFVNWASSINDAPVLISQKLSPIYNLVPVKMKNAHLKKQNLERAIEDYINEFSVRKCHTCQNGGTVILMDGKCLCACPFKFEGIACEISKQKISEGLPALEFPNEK

B1: human complement component C9 (natural protein)
chain: not shown
modifications: fluorescent probe NT-647 bound covalently (in the MST assay)
notes: also called human C9
  binding result: binds
